Experimental data: the supplement of paper PMC10567573

B1: ATL3 (parent)
chain: QELEEEIKELYENFCKHNGSKNVF
B2: CHIT1 (parent)
chain: CSWKGATKQRIQDQKVPYIFRDNQ

Variants of: B1
Experiment: protein stability index of a GFP-peptide fusion (GPS, HEK-293T) (PSI 1-6); higher = more stable
Conditions: c terminus: a fixed tail appended
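Also: lentivirally expressed fusions sorted by FACS into six bins by GFP to DsRed ratio, PSI derived from sequencing read proportions per bin multiplied by bin number.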

Protein stability index of substitutions, site by site:
E6: N 3.29, K 2.48, M 2.19, D 3.59, G 3.09, L 1.75, A 2.13, C 2.32, F 1.93, H 3, I 1.78
L3: W 2.21, T 3.83, S 4.62, N 2.42, D 4.33, P 3.9, R 4.33, K 4.55, Y 2.85, F 3.54, H 4, E 4.29, G 4.49, A 4.15, V 2.28, Q 4.01, M 3.02, C 3.71, I 3.14
E4: R 2.66, F 2.2, K 2.8, Y 2.31, D 3.62, L 2.47, V 2.26, N 3.96, I 1.79, C 2.81, T 3.34, M 2.14, W 2.39, G 3.2, A 1.97, S 3.01, P 3.51, H 2.12, Q 1.56
E5: H 2.42, G 3.25, Q 1.81, A 1.96, M 2.81, F 2.27, Y 1.9, I 1.8, N 2.51, S 2.17, V 2.15, W 1.73, K 2.21, D 3.27, T 2.45, L 2.23, P 3.85, R 2.02, C 2.33
Q1: K 2.31, L 1.76, R 2.31, M 2.46, C 2.69, S 3.41, H 3.17, P 2.83, F 2.09, T 3.19, W 2.03, E 3.67, N 3.39, D 3.13, G 3.31, A 2.22, I 1.42, Y 2.2, V 2.08
E2: V 2.3, H 2.62, Y 2.47, D 3.03, N 3.65, C 2.65, M 2.54, G 3.14, K 3.3, P 3.68, R 2.8, Q 2.52, T 3.43, L 2.21, I 2.36, F 2.57, S 2.97, A 2.38, W 1.9

Variants of: B2
Experiment: as above
Conditions: c terminus: a fixed tail appended

Protein stability index of substitutions, site by site:
K8: T 2.07, M 2.01, N 2.54, G 2.95, Y 2.4, R 2.81
R10: W 1.67, I 1.64, C 2.63, D 2.71, F 2.5
T7: Q 2.89, L 2.52, N 2.62, I 2.3, F 2.68, R 2.75, E 3.41, P 2.74, V 2.42, C 2.29
Q9: E 2.42, G 2.88, P 2.25, C 1.07, T 2.8, R 2.37
Q12: T 2.9, F 1.69, A 2.67, H 2.09, G 2.31, S 2.6, I 2.02, N 2.28, E 2.45, W 1.12
W3: K 3.63, H 3.06, I 2.95, Y 3.04, A 2.78, T 3.23, V 3.46, C 2.06, E 4.03, S 3.14, D 3.73
K15: T 2.48, S 2.29, D 3.09, G 2.15, R 2.31, I 2.44, N 2.75
Q24: Y 1.61, S 2.82, E 4.3, H 2.06, I 2.85, V 2.16, W 1.3, P 2.48, G 2.18, M 1.92
I11: M 2.5, D 3.74, N 2.56, W 2.07, P 2.1, G 2.32, H 3.42, Q 3.54, S 3.01
G5: R 2.38, S 3.28, T 2.53, F 1.37, D 2.67, P 2.38, L 2.77, V 2.32, E 3.34
S2: H 2.42, C 2.06, E 3.25, P 3.02, K 2.01, W 2.69, R 2, M 2.43, Q 1.93, T 2.17, I 1.74, F 3.22
Q14: R 2.34, F 2.47, K 1.87, T 2.88, V 1.94, I 2.35, H 3.06, E 2.79, L 2.04
F20: G 2.87, Q 3.61, Y 2.74, L 3.47, T 3.71, K 3.17, R 3.08, D 3.16, P 3.13
R21: W 1.87, I 2.18, Y 2.72, D 3.49, C 2.11, K 2.83, Q 2.64, G 2.98, E 3.68, N 3.09
V16: T 2.37, D 2.86, I 2.5, S 2.11, R 2.31, F 2.32, L 2.55, M 2.28, N 2.82, W 2.04, Y 1.95
Y18: R 3.08, N 3.4, K 3.34, M 2.41, I 2.23, C 2.7, T 3.02
A6: T 2.27, D 3.47, H 2.51, C 2.06, M 2.64, P 3.05, R 2.73, L 2.43, E 2.79, K 2.23, S 2.4, Q 2.54, W 4.23, Y 2.31
N23: E 2.54, V 1.67, F 2.04, W 1.62, Y 2.11, I 2.56, D 3.53, K 3.05, R 2.82, C 1.91
K4: L 1.84, Q 3.06, E 2.43, A 1.94, C 2.36, I 2.04, V 1.94, G 2.68, R 2.75, T 2.49, P 3.33
C1: F 1.75, P 2.86, D 3.26, M 2.89, V 2.91, Q 2.81, A 3.17, L 2.74, E 3.13
I19: A 3.19, N 3.17, D 3.88, H 3.02, R 3.28, W 2.06, L 2.3, C 2.35, T 2.77, P 1.87, Y 1.95, V 2.88
D13: F 1.8, H 1.78, P 1.83, R 1.69, A 2.81, Y 1.83, Q 2.31, G 2.15, N 1.61, E 2.52, W 1.25, K 1.84, I 1.5
D22: I 1.57, R 2.66, L 2.06, E 2.44, M 2.43, C 1.66, N 2.42, V 1.83, A 2.57, S 2.42
P17: H 2.4, I 1.61, W 2.04, R 2.67, D 3.36, K 2.8, G 2.45, Y 1.75
